No end group written: not given here. *: point of attachment. Biotin = O=C1N[C@H]2[C@H](CS[C@H]2CCCCC(=O)*)N1; code X = not defined here
Assays:
Experiment in all cases: Luminex bead assay [Cont.]
B X MGGITQTPYKVSISG = biological target: T1, B X MGGITQTPYKVSISG (reading uncertain)
T1 construct: row 8 of the chart; also called biotinylated 15-mer, residues 7-21
T1 peptide: {Biotin-code X}-MGGITQTPYKVSISG
Description: (§1) A set of experiments was performed to map the epitope recognized by the anti-CD3ε antibodies. In these experiments, the anti-CD3ε antibodies were assessed for binding to a collection of overlapping 15-mer peptides spanning amino acids 1-27 of human CD3ε protein using a Luminex bead assay. Control CD3 proteins, control peptides, or the test peptides were immobilized on Luminex beads and incubated with a panel of anti-CD3 antibodies. Binding of the anti-CD3 antibodies to the peptide/protein immobilized on the Luminex bead was detected by R-Phycoerythrin conjugated secondary antibody.
(§2) Recombinant CD3 proteins (human CD3d/e heterodimer and cynomolgus CD3-epsilon (Sinobiological)) and control peptides (#p1, #p2, and #p3) were conjugated to Luminex beads using standard EDC/Sulfo-NHS chemistry. The 15-mer test peptides were synthesized as biotinylated peptides at JPT Peptide Technologies Gmbh and were immobilized on streptavidin-conjugated Luminex beads that were made using standard EDC/Sulfo-NHS chemistry and streptavidin (Invitrogen Cat. No. 434301 lot 1626028A). The Luminex beads with immobilized peptides or reagents were incubated with 50 ul of a panel of anti-CD3 antibodies (1 ug/ml) for one hour at room temperature, washed two times, incubated with mixture of anti-human and anti-mouse IgG-RPE (Jackson Immunoresearch 109-116-097 and Southern Biotech 1030-09, respectively) for 30 mins at RT, washed three times, and analyzed in the Luminex instrument to assess the level of bound anti-CD3 antibodies.

B X EEMGGITQTPYKVSI = biological target: T2, B X EEMGGITQTPYKVSI (reading uncertain)
T2 construct: row 6 of the chart; also called biotinylated 15-mer, residues 5-19
T2 peptide: {Biotin-code X}-EEMGGITQTPYKVSI
Description: as §1, §2

B X QAGNEEMGGITQTP = biological target: T3, B X QAGNEEMGGITQTP (reading uncertain)
T3 construct: row 16 of the chart; also called alanine-scan peptide D2A
T3 peptide: {Biotin-code X}-QAGNEEMGGITQTP
Description: as §1, §2

B X TQTPYKVSISGTTVI = biological target: T4, B X TQTPYKVSISGTTVI (reading uncertain)
T4 construct: row 12 of the chart; also called biotinylated 15-mer, residues 11-25
T4 peptide: {Biotin-code X}-TQTPYKVSISGTTVI
Description: as §1, §2

B X QDGAEEMGGITQTP = biological target: T5, B X QDGAEEMGGITQTP (reading uncertain)
T5 construct: row 18 of the chart; 14 residues; also called alanine-scan peptide N4A
T5 peptide: {Biotin-code X}-QDGAEEMGGITQTP
Description: as §1, §2

B X QDANEEMGGITQTP = biological target: T6, B X QDANEEMGGITQTP (reading uncertain)
T6 construct: row 17 of the chart; 14 residues; also called alanine-scan peptide G3A
T6 peptide: {Biotin-code X}-QDANEEMGGITQTP
Description: as §1, §2

B X QTPYKVSISGTTVIL = biological target: T7, B X QTPYKVSISGTTVIL (reading uncertain)
T7 construct: row 13 of the chart; also called biotinylated 15-mer, residues 12-26
T7 peptide: {Biotin-code X}-QTPYKVSISGTTVIL
Description: as §1, §2

B X GGITQTPYKVSISGT = biological target: T8, B X GGITQTPYKVSISGT (reading uncertain)
T8 construct: row 9 of the chart; also called biotinylated 15-mer, residues 8-22
T8 peptide: {Biotin-code X}-GGITQTPYKVSISGT
Description: as §1, §2

- binding result (B X MGGITQTPYKVSISG): no binding (tested: 1 ug/ml)
- binding result (B X EEMGGITQTPYKVSI): no binding (tested: 1 ug/ml)
- binding result (B X QAGNEEMGGITQTP): no binding (tested: 1 ug/ml)
- binding result (B X TQTPYKVSISGTTVI): no binding (tested: 1 ug/ml)
- binding result (B X QDGAEEMGGITQTP): no binding (tested: 1 ug/ml)
- binding result (B X QDANEEMGGITQTP): no binding (tested: 1 ug/ml)
- binding result (B X GGITQTPYKVSISGT): no binding (tested: 1 ug/ml)
B1: 6d59 (antibody, V domains shown)
VH: QVHLVESGGGVVQPGRSLRLSCAASGFKFRSYGMHWVRQAPGKGLEWVAIIWYDGSKRYYADSVKGRFTISRDNSKNTLYLQMSSLRAEDTAVYYCARDLITGTTDYWGQGTLVTVSS
VL: DVVMTQSPLSLPVTLGQPASISCRSSRSLVYSDGNTHLIWFQQRPGQSPRRLIYRVSNRVSGVPDRFSGSGSGTDFTLKISRVEAEDVGVYYCLQGAHWPYTFGQGTKLEIKR
notes: also called 6d59.1; VCD3-6d59.1
- binding result (B X QTPYKVSISGTTVIL): no binding (tested: 1 ug/ml)

— patent US20230057263A1 (CYTOMX THERAPEUTICS, published 2023)
